Assay results reported in paper PMC3286832 (2011).

T1: Dnmt3a K44me0 peptide 39-50 (Mus musculus, UniProt O88508)
T1 chain: SATARKVGRPGR

B1: GLP SET (protein)
chain: not shown
B2: G9a SET (protein)
chain: not shown

Target: T1, Dnmt3a K44me0 peptide 39-50

| Kd [µM] | Binder |
| --- | --- |
| ~5 | B1 |
| ~5 | B2 |
